Laboratory results as given in patent US20240294623A1 (SCHOLAR ROCK, published 2024).
Where a chain is given by its changes, count along the chain named. Values belong to the binder of their own block, whether it stands above or below them.

Legend:
[1] = molecular target: endogenous LTBP-proTGFβ1 of human LN229 cells (human, UniProt P01137 30-390); test: cell-based or functional assay
[2] = molecular target: T1, hLTBP1-proTGFβ1 (human, UniProt Q14766 347-1721; P01137 30-390, limits assumed); test: MSD-SET, hIgG4
T1 construct: Large latent complex (LLC): proTGFβ1 dimer disulfide-linked to one presenting molecule; recombinant, purified, biotinylated in BLI/SPR; The same id is used for the complex made by transfected cells in the reporter assays; also called human LTBP1-proTGFβ1 complex; LTBP1-ProTGFb1
T1 sequence (Q14766 347-1721 limits assumed, chain 1 of 2): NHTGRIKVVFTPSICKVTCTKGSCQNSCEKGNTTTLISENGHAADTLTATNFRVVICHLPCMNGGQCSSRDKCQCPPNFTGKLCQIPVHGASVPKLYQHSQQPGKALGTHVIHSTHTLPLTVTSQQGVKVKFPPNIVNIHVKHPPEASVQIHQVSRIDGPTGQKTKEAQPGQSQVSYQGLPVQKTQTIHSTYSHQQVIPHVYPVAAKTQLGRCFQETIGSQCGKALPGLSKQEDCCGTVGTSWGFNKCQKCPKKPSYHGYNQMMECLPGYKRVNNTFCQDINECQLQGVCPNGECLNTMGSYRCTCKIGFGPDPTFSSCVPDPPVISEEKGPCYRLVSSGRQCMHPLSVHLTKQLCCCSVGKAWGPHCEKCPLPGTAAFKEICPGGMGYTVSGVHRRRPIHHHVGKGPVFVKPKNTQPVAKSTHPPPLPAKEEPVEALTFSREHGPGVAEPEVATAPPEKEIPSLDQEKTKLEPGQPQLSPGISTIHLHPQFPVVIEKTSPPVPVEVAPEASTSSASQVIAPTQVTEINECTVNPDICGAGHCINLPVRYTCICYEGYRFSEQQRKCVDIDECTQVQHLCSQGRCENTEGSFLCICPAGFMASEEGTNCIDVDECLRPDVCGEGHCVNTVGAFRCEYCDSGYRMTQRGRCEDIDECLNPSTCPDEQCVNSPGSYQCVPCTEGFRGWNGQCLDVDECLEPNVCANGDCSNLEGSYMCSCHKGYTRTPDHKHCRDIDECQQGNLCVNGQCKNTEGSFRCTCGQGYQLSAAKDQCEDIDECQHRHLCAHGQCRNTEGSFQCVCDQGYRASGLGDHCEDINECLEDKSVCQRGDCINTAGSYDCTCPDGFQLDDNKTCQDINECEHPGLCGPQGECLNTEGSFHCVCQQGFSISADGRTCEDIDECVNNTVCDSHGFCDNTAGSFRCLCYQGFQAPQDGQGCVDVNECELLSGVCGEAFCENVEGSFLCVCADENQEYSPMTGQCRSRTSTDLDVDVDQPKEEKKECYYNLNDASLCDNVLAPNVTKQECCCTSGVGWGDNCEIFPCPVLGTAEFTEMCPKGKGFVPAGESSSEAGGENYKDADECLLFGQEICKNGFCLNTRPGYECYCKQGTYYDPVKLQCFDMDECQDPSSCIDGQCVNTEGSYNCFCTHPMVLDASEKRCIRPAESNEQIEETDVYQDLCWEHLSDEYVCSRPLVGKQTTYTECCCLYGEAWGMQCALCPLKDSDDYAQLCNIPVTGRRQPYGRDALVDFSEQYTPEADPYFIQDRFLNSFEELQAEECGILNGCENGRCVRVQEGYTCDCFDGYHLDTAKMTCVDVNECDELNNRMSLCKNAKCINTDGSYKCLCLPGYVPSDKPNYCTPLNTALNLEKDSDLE
T1 sequence (P01137 30-390 limits assumed, chain 2 of 2): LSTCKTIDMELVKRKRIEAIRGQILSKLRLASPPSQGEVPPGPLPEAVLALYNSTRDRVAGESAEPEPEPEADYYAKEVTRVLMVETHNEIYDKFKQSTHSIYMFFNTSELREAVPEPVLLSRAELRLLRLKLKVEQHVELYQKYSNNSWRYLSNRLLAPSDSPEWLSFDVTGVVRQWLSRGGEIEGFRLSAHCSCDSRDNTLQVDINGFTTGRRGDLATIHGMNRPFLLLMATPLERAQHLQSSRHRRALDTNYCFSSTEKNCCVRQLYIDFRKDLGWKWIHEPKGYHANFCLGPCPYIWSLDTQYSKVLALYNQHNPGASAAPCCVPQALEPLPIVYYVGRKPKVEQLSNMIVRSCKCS
Procedure: (§1) For solution equilibrium titration-based binding assays, protein complexes that comprise one of the presenting molecules such as those shown above may be employed as antigen (presenting molecule-TGFβ1 complex, or an LLC). Test antibodies are allowed to form antigen-antibody complex in solution. Antigen-antibody reaction mixtures are incubated to allow an equilibrium to be reached; the amount of the antigen-antibody complex present in the assay reactions can be measured by suitable means well known in the art. As compared to BLI-based assays, SET-based assays are less affected by on/off rates of the antigen-antibody complex, allowing sensitive detection of very high affinity interactions.

[3] = molecular target: T2, hLRRC33-proTGFβ1 (human, UniProt Q86YC3 19-650; P01137 30-390, limits assumed); test: MSD-SET, hIgG4
T2 construct: LLC as m1; Same id used for the cell-surface complex in reporter assays; also called human LRRC33-proTGFβ1 complex; LRRC33-ProTGFb1
T2 sequence (Q86YC3 19-650 limits assumed, chain 1 of 2): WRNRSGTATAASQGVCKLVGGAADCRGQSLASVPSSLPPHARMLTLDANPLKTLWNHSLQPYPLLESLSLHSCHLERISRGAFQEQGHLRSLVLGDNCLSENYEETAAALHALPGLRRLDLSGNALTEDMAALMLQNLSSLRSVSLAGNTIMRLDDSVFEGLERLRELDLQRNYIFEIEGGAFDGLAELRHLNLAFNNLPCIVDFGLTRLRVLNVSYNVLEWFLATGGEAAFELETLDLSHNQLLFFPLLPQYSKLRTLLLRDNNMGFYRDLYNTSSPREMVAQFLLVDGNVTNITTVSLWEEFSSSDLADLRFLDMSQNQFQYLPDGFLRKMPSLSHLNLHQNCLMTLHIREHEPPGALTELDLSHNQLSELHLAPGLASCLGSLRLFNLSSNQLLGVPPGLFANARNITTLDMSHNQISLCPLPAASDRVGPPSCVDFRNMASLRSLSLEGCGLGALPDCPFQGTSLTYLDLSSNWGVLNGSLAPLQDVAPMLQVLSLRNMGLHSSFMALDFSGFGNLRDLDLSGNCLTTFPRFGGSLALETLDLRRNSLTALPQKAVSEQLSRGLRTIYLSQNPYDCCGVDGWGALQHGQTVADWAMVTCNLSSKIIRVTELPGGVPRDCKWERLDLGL
T2 sequence (P01137 30-390 limits assumed, chain 2 of 2): as the sequence (P01137 30-390 limits assumed, chain 2 of 2) above
Procedure: as §1

[4] = molecular target: T3, hLTBP3-proTGFβ1 (human, UniProt Q9NS15 44-1303; P01137 30-390, limits assumed); test: MSD-SET, hIgG4
T3 construct: LLC as m1; Same id used for the cell-made complex in reporter assays; also called human LTBP3-proTGFβ1 complex; LTBP3-ProTGFb1
T3 sequence (Q9NS15 44-1303 limits assumed, chain 1 of 2): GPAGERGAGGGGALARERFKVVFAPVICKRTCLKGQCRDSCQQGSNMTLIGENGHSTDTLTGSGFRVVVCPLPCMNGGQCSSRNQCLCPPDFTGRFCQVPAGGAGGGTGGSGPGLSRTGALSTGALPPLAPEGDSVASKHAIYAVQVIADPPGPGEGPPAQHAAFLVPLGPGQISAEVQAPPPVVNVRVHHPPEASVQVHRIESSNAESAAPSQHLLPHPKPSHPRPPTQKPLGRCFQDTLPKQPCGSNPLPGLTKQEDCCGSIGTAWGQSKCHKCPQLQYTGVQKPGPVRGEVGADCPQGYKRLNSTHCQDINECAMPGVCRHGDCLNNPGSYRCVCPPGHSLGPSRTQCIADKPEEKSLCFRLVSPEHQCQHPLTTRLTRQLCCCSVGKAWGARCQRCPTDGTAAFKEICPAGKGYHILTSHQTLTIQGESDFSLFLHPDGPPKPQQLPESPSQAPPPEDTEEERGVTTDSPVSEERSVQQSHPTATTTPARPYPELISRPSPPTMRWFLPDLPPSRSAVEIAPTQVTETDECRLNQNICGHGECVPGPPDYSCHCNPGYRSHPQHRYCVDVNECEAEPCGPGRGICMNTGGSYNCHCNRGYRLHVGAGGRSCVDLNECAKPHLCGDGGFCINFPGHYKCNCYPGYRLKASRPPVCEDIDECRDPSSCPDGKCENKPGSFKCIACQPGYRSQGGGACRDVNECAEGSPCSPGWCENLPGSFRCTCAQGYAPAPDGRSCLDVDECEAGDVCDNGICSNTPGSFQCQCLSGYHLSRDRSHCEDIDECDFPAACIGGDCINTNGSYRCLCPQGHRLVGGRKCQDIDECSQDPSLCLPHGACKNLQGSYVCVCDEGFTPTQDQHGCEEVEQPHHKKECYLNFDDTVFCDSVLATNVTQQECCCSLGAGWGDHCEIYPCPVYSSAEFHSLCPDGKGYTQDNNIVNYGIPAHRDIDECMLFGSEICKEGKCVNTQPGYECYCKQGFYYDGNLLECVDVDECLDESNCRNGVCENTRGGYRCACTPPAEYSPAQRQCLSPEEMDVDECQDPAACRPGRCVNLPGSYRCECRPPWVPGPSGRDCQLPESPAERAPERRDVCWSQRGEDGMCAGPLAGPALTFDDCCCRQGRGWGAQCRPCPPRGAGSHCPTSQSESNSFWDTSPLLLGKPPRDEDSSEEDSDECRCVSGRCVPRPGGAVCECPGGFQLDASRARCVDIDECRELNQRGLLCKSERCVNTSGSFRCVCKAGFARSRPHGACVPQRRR
T3 sequence (P01137 30-390 limits assumed, chain 2 of 2): as the sequence (P01137 30-390 limits assumed, chain 2 of 2) above
Procedure: as §1

[5] = molecular target: T4, hGARP-proTGFβ1 (human, UniProt Q14392 18-627; P01137 30-390, limits assumed); test: MSD-SET, hIgG4
T4 construct: LLC as m1; Same id used for the cell-surface complex in reporter assays; also called human GARP-proTGFβ1 complex; GARP-ProTGFb1
T4 sequence (Q14392 18-627 limits assumed, chain 1 of 2): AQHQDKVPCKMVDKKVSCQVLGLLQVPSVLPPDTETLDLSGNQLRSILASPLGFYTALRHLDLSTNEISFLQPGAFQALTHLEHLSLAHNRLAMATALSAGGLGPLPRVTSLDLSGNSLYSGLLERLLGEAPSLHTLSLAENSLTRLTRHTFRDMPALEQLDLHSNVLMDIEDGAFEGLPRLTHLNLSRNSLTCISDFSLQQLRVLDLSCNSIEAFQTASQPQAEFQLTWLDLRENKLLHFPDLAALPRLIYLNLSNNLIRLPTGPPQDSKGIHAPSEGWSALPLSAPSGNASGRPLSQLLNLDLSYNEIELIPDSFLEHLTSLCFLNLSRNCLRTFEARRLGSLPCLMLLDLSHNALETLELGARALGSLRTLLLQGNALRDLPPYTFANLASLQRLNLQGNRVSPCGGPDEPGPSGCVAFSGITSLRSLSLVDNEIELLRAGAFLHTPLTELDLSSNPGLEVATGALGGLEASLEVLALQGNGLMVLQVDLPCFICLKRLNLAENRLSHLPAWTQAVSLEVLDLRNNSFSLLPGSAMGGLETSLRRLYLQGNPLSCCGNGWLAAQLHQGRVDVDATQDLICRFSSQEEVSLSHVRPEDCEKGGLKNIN
T4 sequence (P01137 30-390 limits assumed, chain 2 of 2): as the sequence (P01137 30-390 limits assumed, chain 2 of 2) above
Procedure: as §1

[6] = molecular target: T1, hLTBP1-proTGFβ1; test: BLI (Octet)
[7] = molecular target: T2, hLRRC33-proTGFβ1; test: BLI (Octet)
[8] = molecular target: T3, hLTBP3-proTGFβ1; test: BLI (Octet)
[9] = molecular target: T4, hGARP-proTGFβ1; test: BLI (Octet)
[10] = molecular target: T1, hLTBP1-proTGFβ1; test: cell-based or functional assay
[11] = molecular target: T2, hLRRC33-proTGFβ1; test: cell-based or functional assay
[12] = molecular target: T3, hLTBP3-proTGFβ1; test: cell-based or functional assay
[13] = molecular target: T4, hGARP-proTGFβ1; test: cell-based or functional assay
[14] = molecular target: T1, hLTBP1-proTGFβ1; test: cell-based or functional assay; remark: listed apart in the source
[15] = molecular target: T2, hLRRC33-proTGFβ1; test: cell-based or functional assay; remark: listed apart in the source
[16] = molecular target: T3, hLTBP3-proTGFβ1; test: cell-based or functional assay; remark: listed apart in the source
[17] = molecular target: T4, hGARP-proTGFβ1; test: cell-based or functional assay; remark: listed apart in the source

endogenous LTBP-proTGFβ1 of human LN229 cells, sequence (P01137 30-390): as the sequence (P01137 30-390 limits assumed, chain 2 of 2) above

B1: Ab46 (hIgG4) (antibody, V domains shown)
VH: EVQLLESGGGLVQPGGSLRLSCAASGFTFADYAMTWVRQAPGKGLEWVSAISGSGAATYFADSVKGRFTISRDNSKNTLYLQMNSLRAEDTAVYYCARVSSGHWDYDYWGQGTLVTVSS
VL: DIQLTQSPSSLSASVGDRVTITCRASQSISSYLNWYQQKPGKAPKLLIYAASGLESGVPSRFSGSGSGTDFTLTISSLQPEDFATYYCQQTYGVPLTFGGGTKVEIK
mAb IC50 [1]: 0.95 nM

B2: Ab3 (antibody, V domains shown)
VH: B1 VH with A30R, D31N, T35S, A50S, A56G, F60Y, Y106F
VL: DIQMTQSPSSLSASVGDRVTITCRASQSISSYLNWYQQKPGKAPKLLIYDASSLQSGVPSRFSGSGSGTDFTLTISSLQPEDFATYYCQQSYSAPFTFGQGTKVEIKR
Kd [2]: 13 nM | Kd [3]: 35 nM | Kd [4]: 16.2 nM | Kd [5]: 28 nM | Kd [6]: 0.47 nM | Kd [7]: 8.52 nM | Kd [8]: 0.459 nM | Kd [9]: 17.3 nM | IC50, in vitro potency assay [10]: 24.3 nM | IC50, in vitro potency assay [11]: 0.858 nM | IC50, in vitro potency assay [12]: 10.4 nM | IC50, in vitro potency assay [13]: 0.981 nM

B3: Ab21 (antibody, V domains shown)
VH: EVQLVESGGGLVQPGGSLRLSCAASGFTFSSFSMDWVRQAPGKGLEWVSYISPDASTIYYADSVKGRFTISRDNAKNSLYLQMNSLRAEDTAVYYCARGVLDYGDMLDPWGQGTLVTVSS
VL: DIQMTQSPSSLSASVGDRVTITCQASQDITNYLNWYQQKPGKAPKLLIYDASNLETGVPSRFSGSGSGTDFTFTISSLQPEDIATYYCQQADNHPPWTFGGGTKVEIK
Kd [6]: 0.225 nM | Kd [7]: 0.455 nM | Kd [8]: 0.268 nM | Kd [9]: 0.833 nM | IC50, reporter cell assay [14]: 1.6 nM | IC50, reporter cell assay [15]: 0.6 nM | IC50, reporter cell assay [16]: 0.8 nM | IC50, reporter cell assay [17]: 0.4 nM

B4: Ab5 (antibody, V domains shown)
VH: B3 VH
VL: B3 VL
IC50, reporter cell assay [14]: 1.3 nM | IC50, reporter cell assay [15]: 0.6 nM | IC50, reporter cell assay [16]: 1 nM | IC50, reporter cell assay [17]: 0.1 nM

B8: Ab26 (antibody, V domains shown)
VH: B3 VH with S78T
VL: B3 VL
Kd [2]: 0.028 nM | Kd [3]: 0.13 nM | Kd [4]: 0.023 nM | Kd [5]: 0.014 nM | Kd [6]: 0.221 nM | Kd [7]: 0.36 nM | Kd [8]: 0.173 nM | Kd [9]: 0.625 nM | IC50, reporter cell assay [14]: 0.7 nM | IC50, reporter cell assay [15]: 0.3 nM | IC50, reporter cell assay [16]: 0.7 nM | IC50, reporter cell assay [17]: 0.3 nM

Further binders by falling Kd [6], results first:

Kd [2]: 0.024 nM | Kd [3]: 0.18 nM | Kd [4]: 0.021 nM | Kd [5]: 0.019 nM | Kd [6]: 0.246 nM | Kd [7]: 0.41 nM | Kd [8]: 0.198 nM | Kd [9]: 0.665 nM
B6: Ab24 (antibody, V domains shown)
VH: B3 VH with G16R, S33A, D35Y
VL: B3 VL

Kd [2]: 0.019 nM | Kd [3]: 0.096 nM | Kd [4]: 0.014 nM | Kd [5]: 0.019 nM | Kd [6]: 0.236 nM | Kd [7]: 0.41 nM | Kd [8]: 0.181 nM | Kd [9]: 0.581 nM
B7: Ab31 (antibody, V domains shown)
VH: B3 VH with S78T, G99A
VL: B3 VL

Kd [6]: 0.178 nM | Kd [7]: 0.299 nM | Kd [8]: 0.238 nM | Kd [9]: 0.424 nM
B5: Ab27 (antibody, V domains shown)
VH: B3 VH with S31F, F32Y, S33A, D35N
VL: B3 VL
